Experimental data from patent US20100136660A1 (published 2010).

T1: ovalbumin (UniProt P01012 2-386)
T1 sequence (looked up): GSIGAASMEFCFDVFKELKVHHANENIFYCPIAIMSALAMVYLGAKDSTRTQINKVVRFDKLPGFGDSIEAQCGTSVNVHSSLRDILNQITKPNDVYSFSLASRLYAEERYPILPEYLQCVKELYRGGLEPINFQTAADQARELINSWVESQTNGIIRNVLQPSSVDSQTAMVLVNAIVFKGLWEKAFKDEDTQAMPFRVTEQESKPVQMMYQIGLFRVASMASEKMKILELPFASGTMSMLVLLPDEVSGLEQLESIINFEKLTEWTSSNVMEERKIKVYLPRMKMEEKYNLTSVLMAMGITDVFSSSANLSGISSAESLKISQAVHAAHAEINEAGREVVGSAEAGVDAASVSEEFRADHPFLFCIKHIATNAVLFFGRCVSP

B1: human scFv VH13.1/VL13.1 (lysozyme binder from unimmunized library) (scFv, V domains shown)
VH: QVQLVQSGAEVKKPGQSLMISCQGSGYSFSNYWIGWVRQMPGKGLEWMGIIYPGDSDTRYSPSFQGQVTISADKSISTAYLHWSSLKASDTALYYCARLVGGTPAYWGQGT
VL: HVILTQPASVSGSPGQSITISCTGSSRDVGGYNYVSWYQHHPGKAPKLLISEVTNRPSGVSNRFSGSKSGNTASLTISGLQAEDEADYFCASYTSSKTYVFGG
notes: scFv on phage from pHEN1
B2: human scFv VH14.1/VL14.1 (lysozyme binder from unimmunized library) (scFv, V domains shown)
VH: QVQLQESGPGLVKPSETLSLVCTVSGGSLSFSYWGWIRQPPGKGLEWIGYISHRGTDYNSSLQSRVTISADTSKNQFSLKLSSVTAADTAVYYCARSFSNSFFFGYWGQGT
VL: SSELTQDPAVSVAFGQTVRITCQGDSLRSSYASWYQQKPGQAPLLVIYGENSRPSGIPDRFSGSSSGNTASLTITGAQAEDEADYYCNSRDSRGTHLEVFGG
notes: scFv on phage from pHEN1
B3: human scFv VH3.5/VL3.5 (BSA binder from unimmunized library) (scFv, V domains shown)
VH: QVQLVQSGGGVVQPGRSLRLSCAASGFTFSSYGMHWVRQAPGKGLEWVAVISYDGSNKYYADSVKGRFTISRDNSKNTLYLQMNSLRAEDTAVYYCAKTGYSSGWGYFDYWGQGT
VL: SSELTQDPAVSVALGQTVRITCQGDSLRSYYASWYQQKPGQAPVLVIYGKNNRPSGIPDRFSGSSSGNTASLTITGAQAEDEADYYCNSRDSSGNHVVFGG

Biological target: T1, ovalbumin
Experiment: phage ELISA

Binder | binding result
B1 | no binding (tested: 100 ug/ml coating)
B2 | no binding (tested: 100 ug/ml coating)
B3 | no binding (tested: 100 ug/ml coating)

Biological target: T2, bovine thyroglobulin (Sigma) (bovine, UniProt P01267 20-2769)
T2 construct: the same entry is used
T2 sequence (P01267 20-2769 limits assumed): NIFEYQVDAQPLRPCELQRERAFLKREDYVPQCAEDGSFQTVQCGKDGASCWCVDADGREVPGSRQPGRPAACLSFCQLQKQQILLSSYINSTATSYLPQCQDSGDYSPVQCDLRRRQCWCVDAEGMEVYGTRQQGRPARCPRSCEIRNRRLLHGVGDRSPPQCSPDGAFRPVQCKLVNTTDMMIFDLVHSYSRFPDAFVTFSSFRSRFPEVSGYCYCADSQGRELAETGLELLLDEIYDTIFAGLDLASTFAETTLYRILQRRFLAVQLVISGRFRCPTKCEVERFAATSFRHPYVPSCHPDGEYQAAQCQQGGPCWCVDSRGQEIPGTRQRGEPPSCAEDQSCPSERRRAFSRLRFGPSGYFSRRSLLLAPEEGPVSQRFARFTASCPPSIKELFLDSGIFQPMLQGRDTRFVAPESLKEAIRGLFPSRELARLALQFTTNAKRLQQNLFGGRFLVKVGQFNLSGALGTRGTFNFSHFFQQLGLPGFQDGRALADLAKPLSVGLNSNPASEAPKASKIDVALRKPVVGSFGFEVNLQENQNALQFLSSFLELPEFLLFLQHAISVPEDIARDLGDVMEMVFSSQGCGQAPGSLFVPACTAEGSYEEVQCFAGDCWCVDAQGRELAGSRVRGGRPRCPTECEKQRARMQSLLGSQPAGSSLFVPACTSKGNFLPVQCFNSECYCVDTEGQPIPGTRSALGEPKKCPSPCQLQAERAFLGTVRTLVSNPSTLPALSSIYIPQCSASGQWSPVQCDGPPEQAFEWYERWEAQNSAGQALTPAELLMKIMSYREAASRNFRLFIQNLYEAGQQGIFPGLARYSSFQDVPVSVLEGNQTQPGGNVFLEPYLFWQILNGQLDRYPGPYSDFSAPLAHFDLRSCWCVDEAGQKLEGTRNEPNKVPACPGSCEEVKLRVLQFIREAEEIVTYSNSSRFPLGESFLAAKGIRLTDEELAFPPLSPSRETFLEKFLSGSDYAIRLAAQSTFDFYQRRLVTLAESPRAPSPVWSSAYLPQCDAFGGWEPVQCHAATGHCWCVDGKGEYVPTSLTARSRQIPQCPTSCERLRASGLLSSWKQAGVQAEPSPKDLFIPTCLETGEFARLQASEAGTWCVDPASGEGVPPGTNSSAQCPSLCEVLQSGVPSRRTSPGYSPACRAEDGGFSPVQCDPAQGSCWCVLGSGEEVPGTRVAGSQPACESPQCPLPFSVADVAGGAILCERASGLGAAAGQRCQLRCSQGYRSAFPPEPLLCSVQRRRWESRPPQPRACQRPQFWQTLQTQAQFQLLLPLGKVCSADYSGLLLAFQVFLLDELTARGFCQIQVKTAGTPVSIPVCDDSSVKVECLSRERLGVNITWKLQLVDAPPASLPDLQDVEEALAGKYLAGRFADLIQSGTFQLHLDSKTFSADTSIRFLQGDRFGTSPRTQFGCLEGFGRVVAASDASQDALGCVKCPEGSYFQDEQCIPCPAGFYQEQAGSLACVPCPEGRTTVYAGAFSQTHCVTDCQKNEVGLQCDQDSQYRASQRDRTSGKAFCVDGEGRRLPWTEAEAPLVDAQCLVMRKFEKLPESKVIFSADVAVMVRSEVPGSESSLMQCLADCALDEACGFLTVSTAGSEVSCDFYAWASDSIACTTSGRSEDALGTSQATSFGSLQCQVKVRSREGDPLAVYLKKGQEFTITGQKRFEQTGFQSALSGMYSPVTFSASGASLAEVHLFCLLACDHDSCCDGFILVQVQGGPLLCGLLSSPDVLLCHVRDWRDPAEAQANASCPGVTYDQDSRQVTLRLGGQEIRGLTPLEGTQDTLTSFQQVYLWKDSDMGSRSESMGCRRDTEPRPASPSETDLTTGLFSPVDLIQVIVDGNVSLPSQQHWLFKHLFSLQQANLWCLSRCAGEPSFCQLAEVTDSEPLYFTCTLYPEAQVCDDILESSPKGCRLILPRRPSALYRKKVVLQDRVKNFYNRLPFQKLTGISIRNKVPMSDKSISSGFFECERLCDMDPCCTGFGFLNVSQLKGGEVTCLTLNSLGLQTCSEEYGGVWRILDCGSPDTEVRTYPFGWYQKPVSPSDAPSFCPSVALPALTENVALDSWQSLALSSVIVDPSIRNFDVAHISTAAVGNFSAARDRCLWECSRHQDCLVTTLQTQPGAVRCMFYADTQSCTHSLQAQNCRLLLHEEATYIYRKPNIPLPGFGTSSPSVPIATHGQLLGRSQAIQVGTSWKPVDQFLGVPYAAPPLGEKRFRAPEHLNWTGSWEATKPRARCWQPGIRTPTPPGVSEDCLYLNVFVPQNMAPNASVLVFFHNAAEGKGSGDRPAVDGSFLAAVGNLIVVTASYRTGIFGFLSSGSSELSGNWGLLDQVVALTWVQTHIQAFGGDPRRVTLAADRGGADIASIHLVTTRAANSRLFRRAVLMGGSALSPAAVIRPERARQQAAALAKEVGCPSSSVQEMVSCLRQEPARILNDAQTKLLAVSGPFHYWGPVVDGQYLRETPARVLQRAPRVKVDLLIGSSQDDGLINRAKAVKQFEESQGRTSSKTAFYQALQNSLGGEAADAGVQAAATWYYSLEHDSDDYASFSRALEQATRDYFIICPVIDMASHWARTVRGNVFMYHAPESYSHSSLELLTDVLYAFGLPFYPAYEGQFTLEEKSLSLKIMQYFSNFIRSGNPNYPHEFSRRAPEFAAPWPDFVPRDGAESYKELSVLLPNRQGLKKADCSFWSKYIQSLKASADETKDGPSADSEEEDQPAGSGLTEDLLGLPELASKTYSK
Experiment: phage ELISA

Binder | binding result
B1 | no binding (tested: 100 ug/ml coating)
B2 | no binding (tested: 100 ug/ml coating)
B3 | no binding (tested: 100 ug/ml coating)
